Measurements: patent US20090324566A1 (published 2009)

How the values were obtained:
[1] = target: T1, MAGE-A4 peptide on HLA-A*24:02 (human); experiment: multimer staining
T1 peptide: NYKRCFPVI

[2] = target: T2, MAGE-A4 peptide on HLA-A*02:01 (human); experiment: killing
T2 peptide: NYKRCFPVI
Description: (§1) The T2 cells, the T2-A24 cells, and T2-A2 cells prepared by transfecting HLA-A0201 gene into T2 cells were washed 3 times with RPMI 1640 medium, and the washed cells were suspended in RPMI 1640 medium so as to have a density of 5×10⁶ cells/mL. P143 or P715 was added to 1 mL each of the above-mentioned cell suspensions so as to have a final concentration of 10 μM, and the mixture was allowed to stand at room temperature for 15 minutes. Thereafter, 1 mL each of RPMI 1640 medium containing 10% FCS was added thereto, and the mixture was incubated at 37° C. for 1 hour. […]
(§2) The ms69 cells, the RNA-transduced ms69 cells, the #2-28 cells, the CD8 positive cells, and the RNA-transduced CD8 cells were washed twice with RPMI 1640 medium, and the washed cells were suspended in RPMI 1640 medium containing 10% FCS so as to have a density of 2×10⁶ cells/mL, 1×10⁶ cells/mL, 5×10⁵ cells/mL, 2.5×10⁵ cells/mL, 1.25×10⁵ cells/mL, and 6.25×10⁴ cells/mL (effector cells), respectively, and a 100 μL portion thereof was put in each well of a 96-well V-bottom plate. […] The mixture was reacted at 37° C. for 4 hours, and thereafter the supernatants were collected by centrifugation, and an amount of ⁵¹Cr released to 100 μL of the supernatant was determined by using a gamma counter. The specific cytotoxic activity was calculated from the measured value of radioactivity according to the following formula.

[3] = target: T3, SAGE peptide on HLA-A*24:02 (human); experiment: killing
T3 peptide: LYATVIHDI
Description: as §1, §2

B1: HLA-A24-restricted, MAGE-A4 143-151-specific TCR of CTL clone #2-28 (SEQ ID NOs 1 and 2) (TCR, V domains shown)
Valpha: AQSVSQHNHHVILSEAASLELGCNYSYGGTVNLFWYVQYPGQHLQLLLKYFSGDPLVKGIKGFEAEFIKSKFSFNLRKPSVQWSDTAEYFCAGRGGGNKLTFGTGTQLKVEL
Vbeta: DTGVSQNPRHKITKRGQNVTFRCDPISEHNRLYWYRQTLGQGPEFLTYFQNEAQLEKSRLLSDRFSAERPKGSFSTLEIQRTEQGDSAMYLCASSLAQGAGETQYFGPGTRLLVL
binding result [1]: recognises
binding result [2]: no recognition
binding result [3]: no recognition
